The target of assay [1] is T1, recombinant human CD3E ECD (SinoBiological, cat. 10977-H08H) (human, UniProt P07766 23-126).
T1 construct: extracellular domain; bought protein; also called CD3s
As to the kind of experiment: SPR, immobilised CD3e ECD, two-state model. In general terms: SPR reads the build-up and loss of mass on a sensor chip optically.

The target in assay [2] is T2, Fc-tagged human PD-L1 extracellular domain (SinoBiological, cat. 10084-H02H) (human, UniProt Q9NZQ7 19-238).
T2 construct: extracellular domain; also called hPD-L1; not shown: Fc tag of the bought protein
As to the kind of experiment: SPR, captured Fc-PD-L1 ECD, steady state.

Assay [3] addresses T3, recombinant human IL-23R (custom-made by Trenzyme) (human, UniProt Q5VWK5 24-355).
T3 sequence (looked up): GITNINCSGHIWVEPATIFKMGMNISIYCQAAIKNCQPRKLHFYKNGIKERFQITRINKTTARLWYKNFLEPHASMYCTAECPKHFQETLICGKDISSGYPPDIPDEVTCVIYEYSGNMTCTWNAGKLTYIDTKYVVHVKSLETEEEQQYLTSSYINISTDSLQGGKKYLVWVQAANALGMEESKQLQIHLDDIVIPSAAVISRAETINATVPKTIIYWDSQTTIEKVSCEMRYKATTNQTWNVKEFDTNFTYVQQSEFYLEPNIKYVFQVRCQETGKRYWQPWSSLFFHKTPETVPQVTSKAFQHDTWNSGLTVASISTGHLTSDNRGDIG
The assay can be described thus: SPR, immobilised IL-23R.

Assay [4] has as its target T1, recombinant human CD3E ECD …. The assay can be described thus: SPR, immobilised CD3e ECD, two-state model; overall KD of the two-state fit.
Assay [5] deals with T4, recombinant human Her2 ECD (SinoBiological, cat. 10004-HCCH) (human, UniProt P04626 23-652).
T4 construct: extracellular domain; bought protein
The assay can be described thus: SPR, immobilised Her2 ECD.

Assay [6] concerns the target T5, human PD-L1 expressed on cells (CHO-PD-L1, HCC1954, HCC827) (human, UniProt Q9NZQ7 19-290).
T5 construct: whole, on cells; also called hPD-L1; PD-L1 expressing cells
As to the kind of experiment: flow cytometry, inhibition of biotinylated PD-1 binding to HCC827 cells. On the technique in general: Flow cytometry measures light scatter and fluorescence of single cells or particles in a stream.

The target in assay [7] is T2, Fc-tagged human PD-L1 extracellular …. As to the kind of experiment: SPR, captured Fc-PD-L1 ECD, kinetic.
The next assay has as its target T6, mouse serum albumin (mouse, UniProt P07724 25-608).
T6 construct: also called MSA; mouse SA
The assay can be described thus: SPR, immobilised MSA, pH 5.5.

The target in assay [8] is T1, recombinant human CD3E ECD …. The assay can be described thus: SPR, immobilised CD3e ECD, two-state model (kd1); kd1, first step of the two-state fit.
In assay [9] the target is CD3e on Jurkat PD-1 NFAT reporter T cells or on T cells of human PBMCs (human, UniProt P07766 23-207). As to the kind of experiment: cell-based or functional assay.
Another assay deals with T7, human serum albumin (human, UniProt P02768 25-609).
T7 construct: also called HSA; human SA
The assay can be described thus: SPR, immobilised HSA, pH 5.5.

Assay [10] deals with T5, human PD-L1 expressed on cells …. As to the kind of experiment: flow cytometry, inhibition of biotinylated PD-1 binding to HCC1954 cells.
The target in assay [11] is T1, recombinant human CD3E ECD …. The assay can be described thus: SPR, immobilised CD3e ECD, two-state model (ka1); ka1, first step of the two-state fit.
Assay [12] addresses T5, human PD-L1 expressed on cells …. The assay can be described thus: flow cytometry, CHO-PD-L1 cells.
Assay [13] concerns the target T2, Fc-tagged human PD-L1 extracellular …. As to the kind of experiment: SPR, captured Fc-PD-L1 ECD, scFv analyte, kinetic.
The target in assay [14] is T5, human PD-L1 expressed on cells …. As to the kind of experiment: cell-based or functional assay.
Assay [15] has as its target T2, Fc-tagged human PD-L1 extracellular …. As to the kind of experiment: SPR, alanine mutants of 33-03-G02.

A value given as a limit tells only on which side of the number the result lay.

T6 sequence (P07724 25-608 limits assumed): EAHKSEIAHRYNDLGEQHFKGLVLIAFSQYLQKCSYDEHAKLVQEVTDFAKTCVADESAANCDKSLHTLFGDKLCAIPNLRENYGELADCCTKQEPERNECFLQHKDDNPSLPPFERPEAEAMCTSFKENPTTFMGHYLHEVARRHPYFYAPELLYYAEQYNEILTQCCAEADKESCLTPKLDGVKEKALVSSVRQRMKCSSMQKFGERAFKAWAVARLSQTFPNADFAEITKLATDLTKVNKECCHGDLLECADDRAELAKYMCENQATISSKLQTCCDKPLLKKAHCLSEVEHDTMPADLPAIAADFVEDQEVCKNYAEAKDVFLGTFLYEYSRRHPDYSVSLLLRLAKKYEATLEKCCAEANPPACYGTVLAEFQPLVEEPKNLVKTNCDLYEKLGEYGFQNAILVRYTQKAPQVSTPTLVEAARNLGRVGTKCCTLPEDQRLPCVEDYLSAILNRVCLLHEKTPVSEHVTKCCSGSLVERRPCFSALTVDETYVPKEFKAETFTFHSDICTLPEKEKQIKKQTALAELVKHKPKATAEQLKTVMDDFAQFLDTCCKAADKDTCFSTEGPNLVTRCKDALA
T1 sequence (P07766 23-126): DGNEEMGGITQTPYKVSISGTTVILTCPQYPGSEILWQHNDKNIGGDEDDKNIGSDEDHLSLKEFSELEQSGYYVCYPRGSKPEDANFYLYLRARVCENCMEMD

B1: PRO1545 (multispecific antibody)
chain 1: DIQMTQSPSSLSASVGDRVTITCQASQSINDYLAWYQQKPGKAPKLLIYKASTLASGVPSRFSGSGSGTDFTLTISSLQPEDFATYYCQAAYIITDIDNVFGTGTKVTVLGGGGGSGGGGSGGGGSGGGGSQVQLQESGPGLVKPSETLSLTCKVSGFSFSSGYDMCWIRQPPGKGLEWIGCVVAGSVDITYYASWAKGRVTISVDSSKNQFSLKLSSVTAADTAVYYCARKDAYSDAFNLWGQGTLVTVSSGGGGSGGGGSDVVMTQSPSSLSASVGDRVTITCQASQIISSRSAWYQQKPGQPPKLLIYQASKLASGVPSRFSGSGSGTDFTLTISSLQPEDFATYYCQCTYIDSNFGAFGCGTKLTVLGGGSGGSDIQMTQSPSSLSASVGDRVTITCQSSQSVFSNNYLAWFQQKPGQSPKRLIYSASTLASGVPSRFSGSGSGTDFTLTISSLQPEDFATYYCLGSYACSSADCYVFGTGTKVTVLG
chain 2: DIQMTQSPSSLSASVGDRVTITCQASENIYSFLAWYQQKPGKAPKLLIYSASKLAAGVPSRFSGSGSGTDFTLTISSLQPEDFATYYCQQTNRYSNPDIYNVFGTGTKVTVLGGGGGSGGGGSGGGGSGGGGSEVQLVESGGGLVQPGGSLRLSCAASGIDFNSNYYMCWVRQAPGKGLEWIGCIYVGSHVNTYYANWAKGRFTISRDNSKNTVYLQMNSLRAEDTAVYYCATSGSSVLYFKFWGQGTLVTVSSGGGGSGGGGSEVQLVESGGGLVQPGGSLRLSCAASGFSLSSYDMSWVRQAPGKGLAWIGASYASGPTYYASWAKGRFTISRDNSKNTVYLQMNSLRAEDTATYFCARGGWTGTSHSNIWGQGTLVTVSSGGGSGGGSEVQLVESGGGLVQPGGSLRLSCAASGFSFSSSYWICWVRQAPGKCLEWVGCVFTGDGTTYYASWAKGRFTISRDNSKNTVYLQMNSLRAEDTATYFCARPVSVYYYGMDLWGQGTLVTVSS
The term Kd denotes the concentration at which binding is half-saturated. Broadly, the koff is the first-order rate constant of dissociation. As usually defined, the kon is the rate constant with which the complex forms. Usually IC50 stands for the concentration at which inhibition is half-maximal. Read a low IC50 as greater potency. With B1, the KD1 in assay [1] came to 38.2 nM. In addition, the kd2 in [1] amounted to 0.00432 s⁻¹. Besides, the Kd amounted to 879 nM in [2]; 1.52 nM in assay [3]; 16.7 nM in assay [4]; 1130 nM in assay [7]; 15.9 nM in the assay with mouse serum albumin; 0.693 nM with human serum albumin. Moreover, the koff in [3] was 0.000471 s⁻¹; in assay [7], 0.0022 s⁻¹; with mouse serum albumin, 0.00108 s⁻¹; in assay [8], 0.00645 s⁻¹; with human serum albumin it was 0.000119 s⁻¹. Besides, the kon in assay [3] was 309000 M⁻¹ s⁻¹; in assay [7], 1950 M⁻¹ s⁻¹; with mouse serum albumin, 67900 M⁻¹ s⁻¹; in the assay with human serum albumin it was 171000 M⁻¹ s⁻¹; in assay [11] it was 169000 M⁻¹ s⁻¹. Besides, the binding result in assay [5] was “no binding (tested: 90 nM highest concentration)”. Also, the IC50 in assay [6] is 88.1 µg/mL; in [10], 4.14 µg/mL. For the same molecule, the “IC50, NFAT reporter, CHO-PD-L1 (A2 clone) cells” value in assay [9] stood at 26 nM. The “IC50, NFAT reporter, HCC1954 cells” value in [9] turned out to be 12.2 nM. For the same molecule, the “rel. max. activation vs PRO1497, NFAT reporter, HCC1954 cells” value in assay [9] stood at 67%. Also, in [9], the “rel. max. activation vs PRO1497 on HCC1954, NFAT reporter, CHO-PD-L1 (A2 clone) cells” value was 59%.

B2: PRO1546 (multispecific antibody)
chain 1: DIQMTQSPSSLSASVGDRVTITCQASENIYSFLAWYQQKPGKAPKLLIYSASKLAAGVPSRFSGSGSGTDFTLTISSLQPEDFATYYCQQTNRYSNPDIYNVFGTGTKVTVLGGGGGSGGGGSGGGGSGGGGSEVQLVESGGGLVQPGGSLRLSCAASGIDFNSNYYMCWVRQAPGKGLEWIGCIYVGSHVNTYYANWAKGRFTISRDNSKNTVYLQMNSLRAEDTAVYYCATSGSSVLYFKFWGQGTLVTVSSGGGGSGGGGSDVVMTQSPSSLSASVGDRVTITCQASQIISSRSAWYQQKPGQPPKLLIYQASKLASGVPSRFSGSGSGTDFTLTISSLQPEDFATYYCQCTYIDSNFGAFGCGTKLTVLGGGSGGSDIQMTQSPSSLSASVGDRVTITCQSSQSVFSNNYLAWFQQKPGQSPKRLIYSASTLASGVPSRFSGSGSGTDFTLTISSLQPEDFATYYCLGSYACSSADCYVFGTGTKVTVLG
chain 2: DIQMTQSPSSLSASVGDRVTITCQASQSINDYLAWYQQKPGKAPKLLIYKASTLASGVPSRFSGSGSGTDFTLTISSLQPEDFATYYCQAAYIITDIDNVFGTGTKVTVLGGGGGSGGGGSGGGGSGGGGSQVQLQESGPGLVKPSETLSLTCKVSGFSFSSGYDMCWIRQPPGKGLEWIGCVVAGSVDITYYASWAKGRVTISVDSSKNQFSLKLSSVTAADTAVYYCARKDAYSDAFNLWGQGTLVTVSSGGGGSGGGGSEVQLVESGGGLVQPGGSLRLSCAASGFSLSSYDMSWVRQAPGKGLAWIGASYASGPTYYASWAKGRFTISRDNSKNTVYLQMNSLRAEDTATYFCARGGWTGTSHSNIWGQGTLVTVSSGGGSGGGSEVQLVESGGGLVQPGGSLRLSCAASGFSFSSSYWICWVRQAPGKCLEWVGCVFTGDGTTYYASWAKGRFTISRDNSKNTVYLQMNSLRAEDTATYFCARPVSVYYYGMDLWGQGTLVTVSS
As for B2, the KD1 in assay [1] worked out at 38.2 nM. Also, the kd2 in assay [1] stood at 0.00533 s⁻¹. Moreover, the Kd in assay [2] came to 380 nM; in assay [3], 0.848 nM; in [4], 18.3 nM; in assay [7] it was 14.3 nM; with mouse serum albumin, 17.3 nM; with human serum albumin it was 0.797 nM. The koff in assay [3] came to 0.000388 s⁻¹; in assay [7] it was 0.000345 s⁻¹; in the assay with mouse serum albumin it was 0.00116 s⁻¹; in [8], 0.00752 s⁻¹; with human serum albumin it was 0.000134 s⁻¹. Further, the kon in assay [3] amounted to 458000 M⁻¹ s⁻¹; in assay [7] it was 24100 M⁻¹ s⁻¹; with mouse serum albumin it was 67000 M⁻¹ s⁻¹; with human serum albumin, 168000 M⁻¹ s⁻¹; in assay [11], 197000 M⁻¹ s⁻¹. For the same molecule, the binding result in assay [5] is on record as “no binding (tested: 90 nM highest concentration)”. The results for the IC50 in [6] and in [10] were 254 µg/mL and 51.9 µg/mL, respectively. Moreover, in [9], the “IC50, NFAT reporter, CHO-PD-L1 (A2 clone) cells” value was determined as 31.5 nM. The “IC50, NFAT reporter, HCC1954 cells” value in [9] came to 95.4 nM. In addition, the “rel. max. activation vs PRO1497, NFAT reporter, HCC1954 cells” value in assay [9] amounted to 28%. In assay [9], the “rel. max. activation vs PRO1497 on HCC1954, NFAT reporter, CHO-PD-L1 (A2 clone) cells” value came to 60%.

B3: PRO830 (scFv, V domains shown)
VH: QVQLQESGPGLVKPSETLSLTCKVSGFSFSSGYDMCWIRQPPGKGLEWIGCVVAGSVDITYYASWAKGRVTISVDSSKNQFSLKLSSVTAADTAVYYCARKDAYSDAFNLWGQGTLVTVSS
VL: DIQMTQSPSSLSASVGDRVTITCQASQSINDYLAWYQQKPGKAPKLLIYKASTLASGVPSRFSGSGSGTDFTLTISSLQPEDFATYYCQQGYIITDIDNVFGTGTKVTVLG
notes: also called 33-03-G02; parental scFv
One may read the EC50 as the concentration giving half of the maximal effect. In assay [12], B3 returned an EC50 of 0.0055 µg/mL. In [13], this molecule yielded a Kd of 0.0781 nM, a koff of 0.000139 s⁻¹ and a kon of 1.78e+06 M⁻¹ s⁻¹. Also, in [14], the “IC50, neutralization of PD-L1 in NF-AT potency assay” value amounted to 0.0204 µg/mL.

B4: PRO1089 (scFv, V domains shown)
VH: QVQLQESGPGLVKPSETLSLTCKVSGFSFSSGYDMCWIRQPPGKGLEWIGCVVAGSVDITYYASWAKGRVTISVDSSKNQFSLKLSSVTAADTAVYYCARKDAASDAFNLWGQGTLVTVSS
VL: DIQMTQSPSSLSASVGDRVTITCQASQSINDYLAWYQQKPGKAPKLLIYKASTLASGVPSRFSGSGSGTDFTLTISSLQPEDFATYYCQQGYIITDIDNVFGTGTKVTVLG
notes: also called 33-03-G02 VH-Y112A
In turn, B4 showed an EC50 in assay [12] of 51.2 µg/mL. In assay [13], this molecule yielded a Kd of 16.5 nM, a koff of 0.0328 s⁻¹ and a kon of 1.99e+06 M⁻¹ s⁻¹. Further, the “IC50, neutralization of PD-L1 in NF-AT potency assay” value in assay [14] was 1.28 µg/mL. Also, the “fold reduction of affinity vs the original domain” value in [15] is more than 100 fold.

These data come from patent publication US20220411536A1 (NUMAB THERAPEUTICS, published 2022).
